Assay [1] concerns primary murine HSCs. Description: Collagen-α1(I)-GFP expression in primary HSCs from Col-GFP reporter mice. The format is cell-based, mouse. The conditions noted are these: 48 hours; for expression of GFP (percent of cells upregulated collagen-α1(I)-GFP): IL-17A 10 ng/ml. The source says:
(§1) FIG. 9. […] Representative images are shown using ×20 objective. […] Deletion of Stat3 in HSCs was achieved by crossing GFAP-Cre mice×floxed Stat3^f/f mice=GFAP^Stat3−/− mice. […] Nuclear translocation of Stat3 (but not phosphor-Smad2/3) was detected in wild type HSCs but not in Stat3-deficient HSCs. Representative images are shown using ×20 objective. (E) IL-17-dependent collagen-α1(I) expression is impaired in Stat3-deficient HSCs.
For this purpose, primary HSCs were isolated from Col-GFP reporter mice (expressing GFP under collagen-α1(I) promoter) or Col-GFP^IL-17RA−/− mice (generated by crossing IL-17RA^−/− mice with Col-GFP mice, FIG. 9B).

The test system of assay [2] is Stat3. Put plainly: Nuclear translocation of Stat3 in HSCs (fluorescent microscopy). It counts as cell-based, mouse. The conditions noted are these: primary murine HSCs, IL-17A 10 ng/ml.
From the text: as §1
Next, phosphorylation of IL-17 target proteins in KC and HSCs was assessed in vitro (FIG. 18E). […] While the IL-17 signaling pathway in macrophages is characterized^8,22 (and FIG. 18F), IL-17 signaling in HSCs is unknown. […] Thus, similar to macropahges^8,22, NF-κB and Stat3 are downstream targets of IL-17 signaling in HSCs. While NF-κB signaling is required for survival of activated HSC^23, Stat3 may mediate HSC activation by stimulating collagen production.

Assay [3] concerns primary wild type HSCs and Stat3-deficient HSCs. Put plainly: IL-17A-dependent collagen-α1(I) expression in wild type and Stat3-deficient HSCs. It counts as cell-based, mouse. Conditions: IL-17A 10 ng/ml, 8 h.
From the text: as §1
HSCs are the only liver cell type that expresses GFAP^1. The role of Stat3 in IL-17A-mediated collagen-α1(I) expression was tested in primary wild type HSCs and Stat3-deficient HSCs, isolated from GFAP^Stat3−/− mice (GFAP^Cre mice×floxed Stat3^f/f mice, FIG. 9D). […] Next, the relevance of IL-17 signaling was accessed in human HSC cell lines.

The test system of assay [4] is BDL-operated mice. Description: BDL-induced liver fibrosis in mice with daily administration of IL-22 or IL-17E. Conditions: 0.5 μg/mouse daily for 7 days, compared to BDL wt mice+PBS. The format is in vivo. Here is the method: FIG. 11. IL-23 and IL-22 have opposing roles in liver fibrosis. […] Quantification of Sirius Red and α-SMA staining, mRNA expression is shown (p<0.05, compared to BDL wt mice). mRNA expression is fold induction compared to oil-control Wt→wt mice. (D) The percent of inhibition of liver fibrosis was calculated for BM chimeric mice in response to liver injury (in comparison Wt→wt mice, 100%, p<0.01) based on Sirius Red and α-SMA expression. […] Increased fibrosis was detected in IL-22^−/−→wt mice. (E) Administration of IL-22 and IL-17E attenuates liver fibrosis. BDL-operated mice were daily treated with IL-22 (0.5 μg/mouse, n=4), IL-17E (0.5 μg/mouse n=5), or vehicle (PBS) for 7 days, tissues were analyzed by Sirius Red, and α-SMA staining; mRNA expression is shown (p<0.05, compared to BDL wt mice+PBS).
Liver injury was induced in mice by […] with CCl4 (1:4 dilution in corn oil, 200 μl×12 injections^2) or by BDL (3 weeks)^2.
The role of IL-22 and IL-17E in liver fibrosis was examined in BDL-operated mice, injected with IL-22 (0.5 μg/mouse) or IL-17E (0.5 μg/mouse, FIG. 11E).

Assay [5] concerns LX-2 human HSC cell line. Description: Fibrogenic gene mRNA induction in the LX-2 cell line (RT-PCR). The format is cell-based. The conditions noted are these: LX-2, 10 ng/ml, 72 h, compared with non-stimulated cells.
Description: RT-PCR and real time quantitative PCR. […] Methods.
mRNA was isolated and RT-PCR was performed using ABI 7000 sequence detection system (Applied Biosystems), specific primers and SYBRGreen. Ct values of each sample were normalized to 18s mRNA expression. Values were expressed as fold induction in comparison with untreated or sham controls.

The results in this text go back to patent US20150004133A1, “Compositions And Methods For Treating Steatohepatitis, Liver Fibrosis, and Hepatocellular Carcinoma (HCC)” (The Regents of the University of California, priority 2013, published 2015).

With “IL-17A: IL-17 family cytokine mainly produced by CD4+ Th17 cells; purchased from R&D”, the “expression of GFP (percent of cells upregulated collagen-α1(I)-GFP)” value in assay [1] (IL-17RA−/− HSCs (Col-GFP IL-17RA−/−)) worked out at 5±2%; in assay [1] (wild type Col-GFP HSCs, baseline 1±0%) it was 34±7%. In addition, the “time to nuclear translocation of Stat3 in HSCs” value in assay [2] lay in the range of 10 to 15 min. Moreover, the “collagen-α1(I) expression” value in assay [3] (Stat3-deficient HSCs from GFAP Stat3−/− mice) is “failed to induce”; in assay [3] (wild type (Stat3f/f) HSCs), “induced”.

In the case of “TGF-β1: fibrogenic cytokine used as a control; purchased from R&D [reference compound]”, the “expression of collagen-α1(I)-GFP” value in assay [1] (both wild type and IL-17RA−/− HSCs, TGF-β1 3 ng/ml, control) was “strongly induced”.

B1: IL-17E: Interleukin 25; cytokine that binds to IL-17RA and IL-17RB heterodimers (protein)
chain: YSHWPSCCPSKGQDTSEELLRWSTVPVPPLEPARPNRHPESCRASEDGPLNSRAISPWRYELDRDLNRLPQDLYHARCLCPHCVSLQTGSHMDPRGNSELLYHNQTVFYRRPCHGEKGTHKGYCLERRLYRVSLACVCVRPRVMG
For the molecule B1, in assay [4], the “reduction of Sirius Red staining” value amounted to 3 fold, the “reduction of mRNA for Col-α1(I)” value is reported as 3 fold and the “reduction of mRNA for α-SMA” value was 2.5 fold.

B2: IL-22: protein that in humans is encoded by the IL22 gene; cytokine purchased from R&D (protein, UniProt Q9GZX6 34-179, looked up)
Interleukin-22: APISSHCRLDKSNFQQPYITNRTFMLAKEASLADNNTDVRLIGEKLFHGVSMSERCYLMKQVLNFTLEEVLFPQSDRFQPYMQEVVPFLARLSNRLSTCHIEGDDLHIQRNVQKLKDTVKKLGESGEIKAIGELDLLFMSLRNACI
For B2, in assay [4], the “reduction of Sirius Red staining” value is given as 3 fold, the “reduction of mRNA for Col-α1(I)” value came out at 3 fold and the “reduction of mRNA for α-SMA” value was 2.5 fold.

B3: IL-17F: IL-17 family cytokine; purchased from R&D (protein, UniProt Q96PD4 31-163, looked up)
Interleukin-17F: RKIPKVGHTFFQKPESCPPVPGGSMKLDIGIINENQRVSMSRNIESRSTSPWNYTVTWDPNRYPSEVVQAQCRNLGCINAQGKEDISMNSVPIQQETLVVRRKHQGCSVSFQLEKVLVTVGCTCVTPVIHHVQ
As to B3, in assay [5], the “induction of Col-α1(I) mRNA” value was 7 fold and the “induction of α-SMA mRNA” value was 6 fold.
